Data as given in US20120136195A1, “DRUG DELIVERY SYSTEM OF TARGET DRUG AND METHOD OF IMPLEMENTING THE SAME” (priority 2010, published 2012).

Assay: Impact of ultrasound acoustic pressure on enzyme activity of the drug
Type: physicochemical
Description: In the evaluation of ultrasound power and parameter adjustment, and their impacts on enzyme activity, in order to ascertain whether ultrasound could affect drug activity, thus evaluating correctly the benefit of the present invention, therefore in an experiment, various acoustic pressure are given, and evaluations are made for activity of drug on the magnetic particles after applying various numbers of pulses. […] From the result it can be confirmed that, the present invention is able to cause suspension of magnetic particles, while reducing as much as possible its impact on the drug carried by the magnetic particles.

recombinant tissue plasminogen activator [rtPA]
enzyme activity after applying ultrasound (acoustic pressure of 7.1 MPa (FIG. 9)): apparent loss of enzyme activity
enzyme activity after applying ultrasound (lower acoustic pressure (below 7.1 MPa, FIG. 9)): will not be affected
